Experiments:
[1] = system: testosterone, dihydrotestosterone, and estradiol; assay: Second experiment: hormone content in serum and skin tissue by ELISA; assay type: in vivo, C57BL/6 male mice; settings: compared with the model group
Method: (§1) Experimental animals: C57BL/6 male mice, 6-7 weeks old, weighing (20±2) g, were provided by Beijing Vital River Laboratory Animal Technology Co. Ltd., with the animal license number of SCXK (Beijing) 2021-0006. They were kept in a 12 h light/12 h dark environment, with free access to food and water. The mice were divided into normal control group (normal group, NC), model group (Model), experimental group C (rh-CRT-2, with a concentration of 0.35 mg/ml) including an injection group and an external application group, experimental group D (rh-CRT-3, with a concentration of 0.21 mg/ml) including an injection group and external application group, and positive control-minoxidil group (Minoxidil). The proteins were stored in a −70° C. refrigerator and diluted with physiological saline when used. There were 6 mice in each group.
(§2) Modeling and drug administration: First, the hair loss model was established. One day before the modeling, the hair in the center of the back of the experimental animal was removed with a skin preparation knife, and the prepared skin area was depilated with a depilatory cream. After 24 hours of depilation, the normal control group was given 75% ethanol, and other groups were injected with testosterone solution (5 mg/mL) prepared with 75% ethanol, 0.01 mL/mouse. Two hours later, the injection groups of experimental group C and experimental group D were injected on the back, 0.15 mL/mouse, once a day, for 17 consecutive days; the external application groups of experimental group C and experimental group D were applied on the back, 0.15 mL/mouse, once a day, for 17 consecutive days. The normal control group and the model group were externally applied with physiological saline, once a day, 0.15 mL/mouse, for 17 consecutive days. During the drug administration process, except for the normal control group, all other groups were injected with the modeling agent (testosterone), and administrated with drugs after 2 hours. […] After the experiment, the mouse skin was pathologically sectioned as follows: The skin pathological tissue was fixed in 4% paraformaldehyde, trimmed, dehydrated and transparent, and then embedded. The slices were cut with a thickness of 6 μm using a paraffin slicer, and further dewaxed, stained, dehydrated, transparent and sealed. The hair follicles in different areas were observed under an optical microscope, and the number of hair follicles was statistically analyzed.
Hormone content in serum and skin tissue: At the end of the experiment, blood was collected from the mice's orbits, kept at room temperature for 30 min, centrifuged at 5,000 r/min for 10 min, and the serum was removed. At the end of the experiment, skin tissue was collected and stored in a −80° C. refrigerator. During the experiment, the skin tissue was homogenized, and the changes in testosterone, dihydrotestosterone, and estradiol of the serum and skin tissue in each group were detected by enzyme-linked immunosorbent assay (ELISA).
(§3) Statistical analysis: All data were processed using SPSS 17.0 software. One-way ANOVA was used for comparisons among multiple groups. Data were expressed as mean±standard deviation (x±s). P<0.05 was considered statistically significant, and P>0.05 was not considered statistically significant.

[2] = system: mice with androgenic alopecia; assay: Second experiment: testosterone hair loss model, hair growth, skin blackness, scanning electron microscopy and hair follicle count; assay type: in vivo, C57BL/6 male mice; settings: for hair growth on the back skin: 17th day, 0.15 mL/mouse once a day; for growth stage and quantity of back hair under dermoscope: end of experiment
Method: as §1, §2
Scanning electron microscopy observation: At the end of the experiment, hair shafts were randomly plucked from the newly formed hair area on the back of each group of mice. Three mice were selected from each group. The plucked hair shafts were fixed and the changes of hair shafts and hair cuticles were observed by scanning electron microscopy.
as §3

[3] = external application group, compared with the model group

B1: CRT-2: fragment (1-349 aa) of recombinantly expressed CRT, amino acid sequence SEQ ID NO: 9 (protein)
chain: EPAVYFKEQFLDGDGWTSRWIESKHKSDFGKFVLSSGKFYGDEEKDKGLQTSQDARFYALSASFEPFSNKGQTLVVQFTVKHEQNIDCGGGYVKLFPNSLDQTDMHGDSEYNIMFGPDICGPGTKKVHVIFNYKGKNVLINKDIRCKDDEFTHLYTLIVRPDNTYEVKIDNSQVESGSLEDDWDFLPPKKIKDPDASKPEDWDERAKIDDPTDSKPEDWDKPEHIPDPDAKKPEDWDEEMDGEWEPPVIQNPEYKGEWKPRQIDNPDYKGTWIHPEIDNPEYSPDPSIYAYDNFGVLGLDLWQVKSGTIFDNFLITNDEAYAEEFGNETWGVTKAAEKQMKDKQDEEQR
[1]; injection group, P<0.01
  serum dihydrotestosterone: decreased significantly
  skin tissue dihydrotestosterone: decreased significantly
[1]; injection group, P<0.05
  testosterone level in skin tissue: significantly decreased
  testosterone level in the serum: significantly decreased
[1]; topical (external application) group, P<0.05
  serum dihydrotestosterone: decreased significantly
[2]; external application group
  hair growth on the back skin: promoted hair growth the most
[2]; injection group
  hair growth on the back skin: promoted hair growth
  hair cuticles under scanning electron microscopy: dense
  hair shafts under scanning electron microscopy: thin
[2]; Day 14, external application group, compared with the model group, P<0.05
  blackness of the back skin (color tester): significantly increased
[2]; Day 17, external application group, compared with the model group, P<0.01
  blackness of the back skin (color tester): significantly increased
[2]; Day 17, injection group, compared with the model group, P<0.01
  blackness of the back skin (color tester): significantly increased
[2]; [3]
  growth stage and quantity of back hair under dermoscope: increased number and became thicker
  hair cuticles under scanning electron microscopy: dense
  hair shafts under scanning electron microscopy: became significantly thicker
[2]; injection group, compared with the model group
  growth stage and quantity of back hair under dermoscope: less and fine
[2]; external application group, compared with the model group, P<0.01
  number of hair follicles (pathological section): most significant effect
[2]; injection group, compared with the model group, P<0.01
  number of hair follicles (pathological section): significantly promoted

— patent US20250000944A1, “USE OF RECOMBINANT CALRETICULIN IN HAIR GROWTH, HAIR BREEDING, HAIR PROTECTION OR ANTI-HAIR LOSS AND RELATED PRODUCT” (BEIJING YITUBAIHUI BIOTECH CO., LTD, priority 2021, published 2025)
